Assay in all cases: SPR; TNFSF member immobilised on ProteOn GLH chip by amine coupling (up to 5,000-14,500 RU); S100 analyte 62.5 nM to 16 uM, 300 s at 30 uL/min; 25°C; 10 mM HEPES-NaOH, 150 mM NaCl, 0.05% TWEEN 20, 1 mM CaCl2, pH 7.4; heterogeneous ligand, one-site or two-state model; constants averaged over analyte concentrations (SD, n = 2-9)
What all share (settings): both partners purified

Assay [1] deals with T1, activation-inducible TNF-related ligand (TNF ligand superfamily member 18), recombinant soluble form (human, UniProt Q9UNG2 49-177).
T1 construct: also called AITRL
T1 sequence (looked up): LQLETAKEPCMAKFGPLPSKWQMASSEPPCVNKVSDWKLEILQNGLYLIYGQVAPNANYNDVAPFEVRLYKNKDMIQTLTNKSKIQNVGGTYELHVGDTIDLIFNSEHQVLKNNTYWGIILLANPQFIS

The target in assay [2] is T2, TNF-related weak inducer of apoptosis (TNF ligand superfamily member 12), recombinant soluble form (human, UniProt O43508 94-249).
T2 construct: TNF-related weak inducer of apoptosis (TNF ligand superfamily member 12), human, recombinant soluble form; also called TWEAK
T2 sequence (looked up): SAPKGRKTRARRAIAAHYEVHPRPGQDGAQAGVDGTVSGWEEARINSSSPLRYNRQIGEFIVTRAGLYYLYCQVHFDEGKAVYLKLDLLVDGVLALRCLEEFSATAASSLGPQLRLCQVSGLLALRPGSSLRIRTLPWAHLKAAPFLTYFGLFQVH

Assay [3] concerns the target T3, A proliferation-inducing ligand (TNF ligand superfamily member 13), recombinant soluble form (human, UniProt O75888 105-250).
T3 construct: A proliferation-inducing ligand (TNF ligand superfamily member 13), human, recombinant soluble form; also called APRIL
T3 sequence (looked up): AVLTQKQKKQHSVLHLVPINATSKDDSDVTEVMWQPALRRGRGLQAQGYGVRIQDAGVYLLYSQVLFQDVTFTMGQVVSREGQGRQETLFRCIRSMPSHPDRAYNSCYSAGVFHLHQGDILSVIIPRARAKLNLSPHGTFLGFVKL

Assay [4] addresses T4, vascular endothelial cell growth inhibitor (TNF ligand superfamily member 15), recombinant soluble form (human, UniProt O95150 72-251).
T4 construct: also called VEGI
T4 sequence (looked up): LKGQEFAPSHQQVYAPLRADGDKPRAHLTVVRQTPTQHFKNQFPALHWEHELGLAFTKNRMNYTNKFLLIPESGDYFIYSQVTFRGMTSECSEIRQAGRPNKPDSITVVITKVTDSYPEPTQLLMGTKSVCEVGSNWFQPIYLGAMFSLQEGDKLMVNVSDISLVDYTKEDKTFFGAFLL

We go through 4 molecules from publication PMC13623127 (PLOS One, 2026).

B1: recombinant tag-free human S100A5 (natural protein, UniProt P33763 1-92, looked up)
chain: METPLEKALTTMVTTFHKYSGREGSKLTLSRKELKELIKKELCLGEMKESSIDDLMKSLDKNSDQEIDFKEYSVFLTMLCMAYNDFFLEDNK
notes: S100A5, human, recombinant, tag-free; Tag-free
B1: the Kd (commonly the concentration at which binding is half-saturated) in assay [1] came to 409 nM; in assay [2] it was 75.7 nM; in assay [3] it was 11 nM. Moreover, the koff (in general, a measure of how fast the partners let go of each other) in assay [1] was 0.000275 s⁻¹; in assay [2], 3.29e-05 s⁻¹; in assay [3], 4.85e-06 s⁻¹.

B2: recombinant tag-free human S100P (natural protein, UniProt P25815 1-95, looked up)
chain: MTELETAMGMIIDVFSRYSGSEGSTQTLTKGELKVLMEKELPGFLQSGKDKDAVDKLLKDLDANGDAQVDFSEFIVFVAAITSACHKYFEKAGLK
notes: S100P, human, recombinant, tag-free; Tag-free
For B2, in assay [4], the Kd worked out at 11100 nM and the off-rate constant (koff) amounted to 0.0123 s⁻¹.

B3: recombinant tag-free human S100A2 (natural protein)
chain: not shown
notes: S100A2, human, recombinant, tag-free; Tag-free
On to B3, for which, in assay [3], the Kd was determined as 684 nM and the off-rate (koff) was 0.00122 s⁻¹.

B4: recombinant tag-free human S100B (natural protein, UniProt P04271 1-92, looked up)
chain: MSELEKAMVALIDVFHQYSGREGDKHKLKKSELKELINNELSHFLEEIKEQEVVDKVMETLDNDGDGECDFQEFMAFVAMVTTACHEFFEHE
notes: S100B, human, recombinant, tag-free; Tag-free
Turning to B4, in assay [1], the Kd was determined as 12000 nM and the off-rate (koff) worked out at 0.00626 s⁻¹.
